Test results taken from patent US20230089620A1 (JIANGSU HENGRUI PHARMACEUTICALS, published 2023).

B1: A3-21 full-length fully human anti-IL-2 antibody (antibody, human IgG1, lambda, L234A L235A, V domains shown)
VH: EVQLLESGGGLAQPGGSLRLSCAGSGFTFSSYAMSWVRQAPGKGLEWVSGITGTGYRTYYADSVKGRFTVSRDNSRNTVYLQMNSLRAEDTAVYYCVRESGHYYGWFDSWGQGTLVTVSS
VL: QSALTQPPSVSGAPGQRVTISCTGSSSNIGAGYNVHWYQQVPGTVPKLLIDGKGNRPSGVPDRFSGSKSGTSASLAITGLQAEDEADYYCQSYDYMLSGSVVFGRGTKLTVLG
notes: Human IgG1 with LALA mutation
B2: D2-60 full-length fully human anti-IL-2 antibody (antibody, human IgG1, kappa, L234A L235A, V domains shown)
VH: QVQLVQSGAEVKKPGASVKVSCKASGYTFTSYGISWVRQAPGQGLEWMGWISAYNGNTNYAQKLQGRVTMTTDTSTSTAYMELRSLRSDDTAVYYCAREYSSWYSGGMDVWGQGTTVTVSS
VL: DIQMTQSPSSLSASVGDRVTITCRASQGISNYLAWYQQKPGKVPKLLIYAASTLQSGVPSRFSGSGSGTDFTLTISSLQPEDVATYYCQKYDSAPFTFGQGTRLEIKR
notes: Human IgG1 with LALA mutation, kappa light chain
B3: B2-15 full-length fully human anti-IL-2 antibody (antibody, human IgG1, kappa, L234A L235A, V domains shown)
VH: EVQLLESGAEVKKPGASVKVSCKASGYTFTSYYMHWVRQAPGQGLEWMGIINPSGGSTSYAQKFQGRVTMTRDTSTSTVYMELSSLRSEDTAVYYCAREGNSSGYYNAFDIWGQGTMVTVSS
VL: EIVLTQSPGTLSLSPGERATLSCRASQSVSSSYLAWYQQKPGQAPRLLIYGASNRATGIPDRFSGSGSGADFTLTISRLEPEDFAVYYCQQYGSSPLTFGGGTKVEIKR
notes: as for B2
B4: C2-53 full-length fully human anti-IL-2 antibody (antibody, human IgG1, kappa, L234A L235A, V domains shown)
VH: EVQLVESGGGLVQPGRSLILSCAASGFTFDDYAMHWVRQAPGKGLEWVSGISWNSGSIGYADSVKGRFTISRDNAKNSLYLQMNSLRAEDTALYYCAKDQLRWGTYYYYGMDVWGQGTTVTVSS
VL: DIQMTQSPSTLSASVGDRVTITCRASQSVSIWVAWYQQKPGKAPKLLIYKASSLERGVPTRFSGSGSGTEFTLTISSLQPEDFATYHCQQYDTGATFGQGTKVEMKR
notes: as for B2
B5: A2-22 full-length fully human anti-IL-2 antibody (antibody, human IgG1, kappa, L234A L235A, V domains shown)
VH: QVQLVQSGAEVKKPGASVKVSCKASGYTFTSYYMHWVRQAPGQGLEWMGIINPSGGSTSYAQKFQGRVTMTRDTSTSTVYMELSSLRSEDTAVYYCAREDWMEYEYYYGMDVWGQGTLVTVSS
VL: EIVLTQSPGTLSLSPGERATLSCRASQSVSNNYLAWYQQKPGQAPRLLIYGASSRATGIPDRFSGSGSGTDFTLTISRLEPEDFAVYSCQQYGSSPLTFGQGTRLEIKR
notes: Human IgG1 with L234A/L235A (LALA), kappa light chain; expressed in HEK293
B6: D3-68 full-length fully human anti-IL-2 antibody (antibody, human IgG1, kappa, L234A L235A, V domains shown)
VH: QVQLVQSGPEVKKPGASVKVSCKASGYTFTSYGISWVRRAPGQGLEWMGWISAYNGNTNYAQKLQGRVTMTTDTSTSTAYMELRSLRSDDTAVYYCARDLQSPTYYYGSGVIDYWGQGTLVTVSS
VL: DIQLTQSPSTLSASVGDRVTISCRASRAVSPWLAWYQHRPGQAPKLLIYAASSLQSGVPSRFSGSGSGTDFTLTISSLQPEDFATYYCQQYRSYPFTFGPGTTVDIRR
notes: as for B2

Legend:
[1] = molecular target: T1, biotin-labeled IL-2 with a human Fc-tag (Sanyou Biopharmaceutical, GenBank Accession No: P60568-1) (UniProt P60568 21-153, biotin-labeled (site not stated)); assay: ELISA, antibody titrated and captured by anti-human IgG, biotin-IL-2-Fc 2 µg/mL
T1 construct: Bought reagent; also called biotinylated IL-2-Fc; not shown: human Fc-tag
T1 sequence (P60568 21-153 limits assumed, one chain of several): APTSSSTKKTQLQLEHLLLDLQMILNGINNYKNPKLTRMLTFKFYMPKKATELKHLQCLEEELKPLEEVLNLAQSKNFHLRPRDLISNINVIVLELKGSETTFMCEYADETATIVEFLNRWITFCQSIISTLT
Experimental: Anti-human IgG (STAR161, Bio-rad) was diluted to 2 μg/mL with PBS and added at 30 μL/well to coat an ELISA plate, and the plate was incubated overnight at 4° C. The plate was washed with PBST 3 times. The plate was blocked with 1% BSA for 1 h at room temperature and washed with PBST 3 times. […] 30 μL of the antibody solution was added to an ELISA plate, and the plate was incubated at room temperature for 1 h and washed with PBST 3 times. […] The plate was incubated at room temperature for 1 h and washed with PBST 3 times. 30 μL of secondary antibody NeutrAvidin-HRP diluted in a 1:6000 ratio was added. The plate was incubated at room temperature for 1 h and washed with PBST 9 times. 30 μL of TMB was added for color developing for 5-10 min at room temperature, then 30 μL of 2M HCl or H₂SO₄ was added to terminate the reaction. The plate was read for data by a microplate reader at OD 450.

[2] = molecular target: T1, biotin-labeled IL-2 with a human Fc-tag …; assay: competition ELISA: antibody titrated, pre-incubated with biotin-IL-2-Fc (1 µg/mL); competitor coated IL-2Rα-Fc
Experimental: (§1) IL-2Rα-Fc (CJ78, Novoprotein) (Accession #NP_000408) was diluted to 0.5 μg/mL with PBS and added at 30 μL/well to coat an ELISA plate, and the plate was incubated overnight at 4° C. The plate was washed with PBST 3 times. The plate was blocked with 1% BSA for 1 h at room temperature and washed with PBST 3 times. […] The plate was incubated at room temperature for 1 h, and washed with PBST 3 times. 30 μL of secondary antibody NeutrAvidin-HRP diluted in a 1:6000 ratio was added, and the plate was incubated at room temperature for 1 h and washed with PBST 9 times. 30 μL of TMB was added for color developing for 5-10 min at room temperature, then 30 μL of 2 M HCl or H₂SO₄ was added to terminate the reaction. The plate was read for data by a microplate reader at OD 450.

[3] = molecular target: T1, biotin-labeled IL-2 with a human Fc-tag …; assay: competition ELISA: antibody titrated, pre-incubated with biotin-IL-2-Fc (5 µg/mL); competitor coated IL-2Rβ-Fc
Experimental: as §1, with “IL-2Rβ-Fc (CJ82,” for “IL-2Rα-Fc (CJ78,”, “Novoprotein)” for “Novoprotein) (Accession #NP_000408)”, “8” for “0.5”

[4] = molecular target: T2, IL-2-His (CX66, Novoprotein) (UniProt P60568 21-153); assay: Octet: reading at 230 s of IL-2-His (100 nM) + antibody (500 nM) on biotin-IL-2Rα-Fc sensor; lower = stronger blocking
T2 construct: Bought reagent; not shown: His tag
T2 sequence (P60568 21-153 limits assumed): as the sequence (P60568 21-153 limits assumed, one chain of several) above
Experimental: A Streptavidin biosensor (Fortebio, #18-5020) was immersed in 200 μL of KB buffer (PBS, pH 7.4, 0.05% tween-20, 0.1% BSA) for 60 s for the wetting treatment. Then, biotinylated IL-2Rα-Fc (CJ78, Novoprotein) was diluted to 10 μg/mL with the KB buffer, and the sensor was immersed in 200 μL of the solution for 150 s. The sensor was immersed in the KB buffer for 60 s to elute excess IL-2Rα. […] The sensor was immersed in the mixture for 300 s for association. […] The values at 230 s after the beginning of the binding were read.

[5] = molecular target: T1, biotin-labeled IL-2 with a human Fc-tag …; assay: Octet: biotin-IL-2-Fc sensor loaded with antibody (500 nM), reading at 230 s of IL-2Rβ-Fc (8000 nM) binding; lower = stronger blocking
Experimental: A Streptavidin biosensor (Fortebio, #18-5020) was immersed in 200 μL of KB buffer (PBS, pH 7.4, 0.05% tween-20, 0.1% BSA) for 60 s for the wetting treatment. […] The IL-2Rβ-Fc (CJ82, Novoprotein) was diluted to a final concentration of 8000 nM with the KB buffer, and the sensor was immersed in the antibody solution for association for 300 s. […] The values at 230 s after the beginning of the binding of IL-2Rβ-Fc were read.

IL-2 (C013, Novoprotein) = IL-2 (C013, Novoprotein) (UniProt P60568 21-153); assay: SPR (Biacore T200), antibody captured on Protein A chip, IL-2 analyte, 1:1 model
Chain of IL-2 (C013, Novoprotein) (P60568 21-153 limits assumed): as the sequence (P60568 21-153 limits assumed, one chain of several) above
Experimental: The solutions flowed at a flow rate of 30 μL/min for dissociation for 300 s. The reaction signals were detected in real time to obtain association and dissociation curves. After the dissociation was completed for each assay cycle, the chip was washed and regenerated with 10 mM Gly-HCl, pH 2.0.

EC50 [1] [µg/mL]	IC50 [2] [µg/mL]	IC50 [3] [µg/mL]	Values for blocking IL-2Rα at an Octet level [4]	Values for blocking IL-2Rβ at an Octet level [5]	Kd (IL-2 (C013, Novoprotein)) [nM]	koff (IL-2 (C013, Novoprotein)) [s⁻¹]	kon (IL-2 (C013, Novoprotein)) [M⁻¹ s⁻¹]	Binder
1.35	1.46	3.48	0.428	0.003	–	–	–	B1
1.43	–	8.27	0.754	0.086	12.8	0.00651	509000	B2
2.12	–	3.04	0.7	0.056	30.6	0.0448	1.46e+06	B3
0.73	0.659	1.44	0.41	0.017	0.267	0.00437	1.64e+07	B4
1.29	–	2.73	0.848	0.042	39.8	0.0527	1.33e+06	B5
1.21	1.2	2.13	0.473	0.027	4.72	0.0546	1.16e+07	B6
